Legend:
Assay in all cases: cell-based or functional assay
[1] = molecular target: SARS-CoV-2 spike (S) protein of Omicron sublineage BA.2.75 (G446S) (SARS-CoV-2) (UniProt P0DTC2)
[2] = molecular target: SARS-CoV-2 spike (S) protein of Omicron sublineage BJ.1 (R346T, V445P, G446S) (SARS-CoV-2) (UniProt P0DTC2)
[3] = molecular target: SARS-CoV-2 spike (S) protein of Omicron sublineage BQ.1.1 (R346T, K444T, F486V) (SARS-CoV-2) (UniProt P0DTC2)
[4] = molecular target: SARS-CoV-2 spike (S) protein, Omicron variant BA.2.12.1 (SARS-CoV-2) (UniProt P0DTC2)
[5] = molecular target: SARS-CoV-2 spike (S) protein, Omicron variant BA.1 (SARS-CoV-2) (UniProt P0DTC2)
[6] = molecular target: SARS-CoV-2 spike (S) protein, Omicron variant BA.2 (SARS-CoV-2) (UniProt P0DTC2)
[7] = molecular target: SARS-CoV-2 spike protein, C.1.2 variant (SARS-CoV-2)
[8] = molecular target: SARS-CoV-2 spike protein, Alpha variant (B.1.1.7) (SARS-CoV-2)
[9] = molecular target: SARS-CoV-2 spike protein, Delta variant (B.1.617.2) (SARS-CoV-2)
[10] = molecular target: SARS-CoV-2 spike protein, Beta variant 1 (B.1.351 v1) (SARS-CoV-2)
[11] = molecular target: SARS-CoV-2 spike protein, Gamma variant (P.1) (SARS-CoV-2)
[12] = molecular target: SARS-CoV-2 spike protein, Mu variant (B.1.621) (SARS-CoV-2)
[13] = molecular target: SARS-CoV-2 Omicron BA.4.6 spike protein (R346T, F486V) (SARS-CoV-2) (UniProt P0DTC2)

Sequence of MX413 (A19-61 × A23-58H/B1-182L) (bispecific antibody) (chain): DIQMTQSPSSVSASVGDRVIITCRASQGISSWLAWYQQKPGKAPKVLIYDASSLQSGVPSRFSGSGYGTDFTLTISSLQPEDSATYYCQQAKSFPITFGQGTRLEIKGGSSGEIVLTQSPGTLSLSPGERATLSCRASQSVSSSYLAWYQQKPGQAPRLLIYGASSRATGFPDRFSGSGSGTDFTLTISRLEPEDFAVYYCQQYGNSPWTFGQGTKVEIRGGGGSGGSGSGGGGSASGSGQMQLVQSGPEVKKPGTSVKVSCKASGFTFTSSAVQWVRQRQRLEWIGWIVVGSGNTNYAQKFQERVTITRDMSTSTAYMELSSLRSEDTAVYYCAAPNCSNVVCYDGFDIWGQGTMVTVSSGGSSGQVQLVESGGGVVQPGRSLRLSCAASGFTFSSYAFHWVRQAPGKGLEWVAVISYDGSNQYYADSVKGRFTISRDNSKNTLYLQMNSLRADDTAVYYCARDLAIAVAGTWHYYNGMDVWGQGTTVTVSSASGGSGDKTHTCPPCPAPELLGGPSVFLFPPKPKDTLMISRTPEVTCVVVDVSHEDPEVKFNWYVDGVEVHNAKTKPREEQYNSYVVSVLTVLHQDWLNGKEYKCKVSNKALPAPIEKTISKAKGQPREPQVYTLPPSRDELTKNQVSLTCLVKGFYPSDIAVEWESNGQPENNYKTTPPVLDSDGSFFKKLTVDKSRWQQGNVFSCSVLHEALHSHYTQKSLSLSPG
Sequence of MX493 (A19-46 × A23-58H/B1-182L CL-CH1) (bispecific antibody) (chain): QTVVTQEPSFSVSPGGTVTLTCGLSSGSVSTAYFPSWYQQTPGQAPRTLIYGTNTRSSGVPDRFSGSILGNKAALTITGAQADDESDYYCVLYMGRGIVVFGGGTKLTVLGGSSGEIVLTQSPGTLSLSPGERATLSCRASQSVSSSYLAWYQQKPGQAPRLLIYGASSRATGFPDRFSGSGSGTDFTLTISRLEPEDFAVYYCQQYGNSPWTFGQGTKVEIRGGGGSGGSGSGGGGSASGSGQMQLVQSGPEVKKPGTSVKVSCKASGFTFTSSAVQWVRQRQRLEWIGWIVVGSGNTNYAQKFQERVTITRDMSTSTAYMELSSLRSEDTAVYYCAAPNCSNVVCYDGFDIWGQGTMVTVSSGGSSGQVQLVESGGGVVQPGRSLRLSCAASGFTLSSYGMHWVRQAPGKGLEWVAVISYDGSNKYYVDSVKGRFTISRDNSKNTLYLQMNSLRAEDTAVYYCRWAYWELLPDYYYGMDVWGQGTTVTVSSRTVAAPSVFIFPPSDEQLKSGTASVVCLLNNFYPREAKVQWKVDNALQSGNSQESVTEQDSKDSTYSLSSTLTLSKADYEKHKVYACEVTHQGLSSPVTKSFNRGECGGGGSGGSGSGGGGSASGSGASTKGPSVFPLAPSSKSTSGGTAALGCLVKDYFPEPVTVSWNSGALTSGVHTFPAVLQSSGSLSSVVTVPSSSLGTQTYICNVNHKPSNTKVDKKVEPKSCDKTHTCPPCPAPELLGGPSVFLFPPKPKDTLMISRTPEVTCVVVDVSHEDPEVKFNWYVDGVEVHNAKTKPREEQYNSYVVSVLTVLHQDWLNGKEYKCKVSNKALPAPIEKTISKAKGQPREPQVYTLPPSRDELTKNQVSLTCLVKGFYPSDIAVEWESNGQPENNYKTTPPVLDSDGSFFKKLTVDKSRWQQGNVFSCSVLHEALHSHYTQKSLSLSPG
Sequence of MX492 (A19-46 x A23-58H/B1-182L) bispecific, tetravalent molecule with Fc (bispecific antibody) (chain): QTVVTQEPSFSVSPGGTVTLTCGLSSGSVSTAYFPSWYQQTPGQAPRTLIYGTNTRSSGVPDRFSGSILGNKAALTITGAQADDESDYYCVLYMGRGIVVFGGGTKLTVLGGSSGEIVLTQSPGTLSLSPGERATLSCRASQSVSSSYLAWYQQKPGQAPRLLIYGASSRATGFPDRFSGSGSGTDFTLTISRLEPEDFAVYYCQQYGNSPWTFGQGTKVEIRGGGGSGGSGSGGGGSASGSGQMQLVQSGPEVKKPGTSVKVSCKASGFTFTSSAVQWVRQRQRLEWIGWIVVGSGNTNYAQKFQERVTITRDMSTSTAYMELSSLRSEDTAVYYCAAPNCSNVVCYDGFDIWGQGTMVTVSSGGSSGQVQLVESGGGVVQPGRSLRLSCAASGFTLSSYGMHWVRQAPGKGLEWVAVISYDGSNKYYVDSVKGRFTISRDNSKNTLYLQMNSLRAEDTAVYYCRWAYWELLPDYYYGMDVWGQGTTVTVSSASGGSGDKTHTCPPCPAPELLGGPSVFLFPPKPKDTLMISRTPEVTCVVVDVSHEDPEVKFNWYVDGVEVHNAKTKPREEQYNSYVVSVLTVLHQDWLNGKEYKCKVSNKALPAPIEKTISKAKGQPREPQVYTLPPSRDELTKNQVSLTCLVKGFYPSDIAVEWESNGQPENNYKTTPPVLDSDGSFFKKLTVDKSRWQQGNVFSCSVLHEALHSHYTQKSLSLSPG
Sequence of MX491 (A23-58H/B1-182L × A19-46 CL-CH1) (bispecific antibody) (chain): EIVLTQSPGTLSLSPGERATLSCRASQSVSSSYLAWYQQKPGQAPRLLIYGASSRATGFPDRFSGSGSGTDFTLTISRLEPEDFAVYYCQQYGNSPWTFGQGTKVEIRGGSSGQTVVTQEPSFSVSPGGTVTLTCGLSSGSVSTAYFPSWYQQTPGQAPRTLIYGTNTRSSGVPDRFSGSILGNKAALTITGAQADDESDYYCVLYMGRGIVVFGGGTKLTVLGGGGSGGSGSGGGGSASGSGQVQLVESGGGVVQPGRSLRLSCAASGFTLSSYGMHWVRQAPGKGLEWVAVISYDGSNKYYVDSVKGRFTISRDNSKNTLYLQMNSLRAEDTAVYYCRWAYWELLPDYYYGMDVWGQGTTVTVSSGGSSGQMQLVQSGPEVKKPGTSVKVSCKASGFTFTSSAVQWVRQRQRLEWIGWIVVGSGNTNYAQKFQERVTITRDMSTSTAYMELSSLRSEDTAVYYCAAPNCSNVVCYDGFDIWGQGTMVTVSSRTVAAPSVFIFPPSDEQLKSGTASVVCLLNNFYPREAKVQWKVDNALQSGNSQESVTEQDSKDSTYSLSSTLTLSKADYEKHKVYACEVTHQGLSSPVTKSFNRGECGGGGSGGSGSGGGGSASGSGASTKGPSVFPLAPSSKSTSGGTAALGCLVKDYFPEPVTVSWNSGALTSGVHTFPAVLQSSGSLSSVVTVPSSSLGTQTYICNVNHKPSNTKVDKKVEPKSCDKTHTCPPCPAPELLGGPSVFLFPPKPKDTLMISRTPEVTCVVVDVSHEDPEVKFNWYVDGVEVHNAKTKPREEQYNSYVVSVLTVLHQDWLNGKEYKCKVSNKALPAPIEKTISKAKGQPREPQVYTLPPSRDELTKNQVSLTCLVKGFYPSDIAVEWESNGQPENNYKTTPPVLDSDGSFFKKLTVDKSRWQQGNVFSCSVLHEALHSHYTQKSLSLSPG
Sequence of MX412 (A23-58H/B1-182L × A19-61) (bispecific antibody) (chain): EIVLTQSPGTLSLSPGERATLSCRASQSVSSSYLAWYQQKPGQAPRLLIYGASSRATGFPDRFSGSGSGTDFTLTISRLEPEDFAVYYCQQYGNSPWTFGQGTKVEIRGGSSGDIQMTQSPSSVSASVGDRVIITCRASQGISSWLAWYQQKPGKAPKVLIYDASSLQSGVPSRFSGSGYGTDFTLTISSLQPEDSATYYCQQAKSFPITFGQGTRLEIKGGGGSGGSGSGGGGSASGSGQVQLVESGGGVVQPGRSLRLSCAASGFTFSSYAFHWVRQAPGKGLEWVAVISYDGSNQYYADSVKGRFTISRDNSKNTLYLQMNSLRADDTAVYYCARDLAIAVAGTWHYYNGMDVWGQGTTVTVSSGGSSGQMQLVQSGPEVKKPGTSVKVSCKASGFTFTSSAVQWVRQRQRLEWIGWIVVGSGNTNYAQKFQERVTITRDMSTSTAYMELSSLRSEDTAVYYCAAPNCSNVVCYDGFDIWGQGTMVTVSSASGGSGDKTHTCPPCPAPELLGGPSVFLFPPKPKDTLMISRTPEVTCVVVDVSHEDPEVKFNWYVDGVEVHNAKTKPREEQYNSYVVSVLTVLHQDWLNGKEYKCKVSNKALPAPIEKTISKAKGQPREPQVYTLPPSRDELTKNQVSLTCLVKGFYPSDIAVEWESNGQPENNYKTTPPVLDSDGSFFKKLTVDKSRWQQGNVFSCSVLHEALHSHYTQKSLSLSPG

Substance	IC50, pseudovirus neutralization [1]	IC80, pseudovirus neutralization [1]	IC50, pseudovirus neutralization [2]	IC80, pseudovirus neutralization [2]	IC50, pseudovirus neutralization [3]	IC80, pseudovirus neutralization [3]	IC50, pseudovirus neutralization [4]	IC80, pseudovirus neutralization [4]	IC50, pseudovirus neutralization [5]	IC80, pseudovirus neutralization [5]	IC50, pseudovirus neutralization [6]	IC80, pseudovirus neutralization [6]	IC50, pseudovirus neutralization [7]	IC80, pseudovirus neutralization [7]	IC50, pseudovirus neutralization [8]	IC80, pseudovirus neutralization [8]	IC50, pseudovirus neutralization [9]	IC80, pseudovirus neutralization [9]	IC50, pseudovirus neutralization [10]	IC80, pseudovirus neutralization [10]	also measured
A19-61.1 antibody	> 10000 nM	> 10000 nM	> 10000 nM	> 10000 nM	> 10 µM	> 10 µM															
MX492 (A19-46 x A23-58H/B1-182L) bispecific, tetravalent molecule with Fc (bispecific antibody)	3 nM	10 nM	783 nM	2010 nM	> 10 µM	> 10 µM															
MX466 (A23-58H/B1-182L Cl-CH1 Tetravalent) (antibody)							0.586 nM	18 nM	0.57 nM	8.23 nM	2.47 nM	44.2 nM									
MX491 (A23-58H/B1-182L × A19-46 CL-CH1) (bispecific antibody)							1.44 nM	7.81 nM	0.0316 nM	0.0928 nM	0.0489 nM	0.114 nM									
MX412 (A23-58H/B1-182L × A19-61) (bispecific antibody)							0.0615 nM	0.178 nM	8.96 nM	31.8 nM	0.0304 nM	0.0803 nM	0.014 nM	0.0528 nM	0.058 nM	0.143 nM	0.0279 nM	0.0625 nM	0.0365 nM	0.084 nM	IC50, pseudovirus neutralization [11]: 0.042 nM; IC80, pseudovirus neutralization [11]: 0.0885 nM; IC50, pseudovirus neutralization [12]: 0.583 nM; IC80, pseudovirus neutralization [12]: 1.78 nM
A23-58 mAb (antibody)							0.647 nM	4.96 nM	0.853 nM	4.24 nM	1.68 nM	5.69 nM	0.0287 nM	0.0656 nM	0.0329 nM	0.104 nM	0.0133 nM	0.0358 nM	0.123 nM	0.339 nM	IC50, pseudovirus neutralization [11]: 0.0097 nM; IC80, pseudovirus neutralization [11]: 0.0437 nM; IC50, pseudovirus neutralization [12]: 0.124 nM; IC80, pseudovirus neutralization [12]: 0.26 nM
A23-58H/B1-182L hybrid antibody	5 nM	35 nM	20 nM	102 nM	> 10 µM	> 10 µM															IC50, pseudovirus neutralization [13]: > 10 µM; IC80, pseudovirus neutralization [13]: > 10 µM
bebtelovimab (LY1404, LY-CoV1404, LY3853133) (antibody)	13 nM	86 nM	> 10000 nM	> 10000 nM	> 10 µM	> 10 µM															
MX413 (A19-61 × A23-58H/B1-182L) (bispecific antibody)							0.0149 nM	0.0614 nM	6.58 nM	20.5 nM	0.0141 nM	0.0466 nM	0.0109 nM	0.026 nM	0.0547 nM	0.141 nM	0.0193 nM	0.0655 nM	0.0386 nM	0.092 nM	IC50, pseudovirus neutralization [11]: 0.025 nM; IC80, pseudovirus neutralization [11]: 0.0547 nM; IC50, pseudovirus neutralization [12]: 0.089 nM; IC80, pseudovirus neutralization [12]: 0.166 nM
MX409 (A23-58H/B1-182L Tetravalent) (antibody)							8.96 nM	52.7 nM	2.03 nM	> 66.7 nM	4.9 nM	> 66.7 nM	0.005 nM	0.0099 nM	0.0139 nM	0.0286 nM	0.00313 nM	0.00882 nM	0.0073 nM	0.0175 nM	IC50, pseudovirus neutralization [11]: 0.00182 nM; IC80, pseudovirus neutralization [11]: 0.00565 nM; IC50, pseudovirus neutralization [12]: 0.0046 nM; IC80, pseudovirus neutralization [12]: 0.0124 nM
MX493 (A19-46 × A23-58H/B1-182L CL-CH1) (bispecific antibody)							0.0331 nM	0.0858 nM	0.0158 nM	0.0387 nM	0.02 nM	0.0464 nM									
